{"source": "patent US20140271603", "proteins": {"B1": {"name": "Factor I (protein)", "chain": "KVTYTSQEDLVEKKCLAKKYTHLSCDKVFCQPWQRCIEGTCVCKLPYQCPKNGTAVCATNRRSFPTYCQQKSLECLHPGTKFLNNGTCTAEGKFSVSLKHGNTDSEGIVEVKLVDQDKTMFICKSSWSMREANVACLDLGFQQGADTQRRFKLSDLSINSTECLHVHCRGLETSLAECTFTKRRTMGYQDFADVVCYTQKADSPMDDFFQCVNGKYISQMKACDGINDCGDQSDELCCKACQGKGFHCKSGVCIPSQYQCNGEVDCITGEDEVGCAGFASVTQEETEILTADMDAERRRIKSLLPKLSCGVKNRMHIRRKRIVGGKRAQLGDLPWQVAIKDASGITCGGIYIGGCWILTAAHCLRASKTHRYQIWTTVVDWIHPDLKRIVIEYVDRIIFHENYNAGTYQNDIALIEMKKDGNKKDCELPRSIPACVPWSPYLFQPNDTCIVSGWGREKDNERVFSLQWGEVKLISNCSKFYGNRFYEKEMECAGTYDGSIDACKGDSGGPLVCMDANNVTYVWGVVSWGENCGKPEFPGVYTKVANYFDWISYHVGRPFISQYNV"}}, "key": {"[1]": {"target": "purified human plasma factor H (batch LFB), P08603"}, "[2]": {"target": "T1, recombinant human factor H, Y402 variant, produced in the HEK 293F cell line", "T1 chain": "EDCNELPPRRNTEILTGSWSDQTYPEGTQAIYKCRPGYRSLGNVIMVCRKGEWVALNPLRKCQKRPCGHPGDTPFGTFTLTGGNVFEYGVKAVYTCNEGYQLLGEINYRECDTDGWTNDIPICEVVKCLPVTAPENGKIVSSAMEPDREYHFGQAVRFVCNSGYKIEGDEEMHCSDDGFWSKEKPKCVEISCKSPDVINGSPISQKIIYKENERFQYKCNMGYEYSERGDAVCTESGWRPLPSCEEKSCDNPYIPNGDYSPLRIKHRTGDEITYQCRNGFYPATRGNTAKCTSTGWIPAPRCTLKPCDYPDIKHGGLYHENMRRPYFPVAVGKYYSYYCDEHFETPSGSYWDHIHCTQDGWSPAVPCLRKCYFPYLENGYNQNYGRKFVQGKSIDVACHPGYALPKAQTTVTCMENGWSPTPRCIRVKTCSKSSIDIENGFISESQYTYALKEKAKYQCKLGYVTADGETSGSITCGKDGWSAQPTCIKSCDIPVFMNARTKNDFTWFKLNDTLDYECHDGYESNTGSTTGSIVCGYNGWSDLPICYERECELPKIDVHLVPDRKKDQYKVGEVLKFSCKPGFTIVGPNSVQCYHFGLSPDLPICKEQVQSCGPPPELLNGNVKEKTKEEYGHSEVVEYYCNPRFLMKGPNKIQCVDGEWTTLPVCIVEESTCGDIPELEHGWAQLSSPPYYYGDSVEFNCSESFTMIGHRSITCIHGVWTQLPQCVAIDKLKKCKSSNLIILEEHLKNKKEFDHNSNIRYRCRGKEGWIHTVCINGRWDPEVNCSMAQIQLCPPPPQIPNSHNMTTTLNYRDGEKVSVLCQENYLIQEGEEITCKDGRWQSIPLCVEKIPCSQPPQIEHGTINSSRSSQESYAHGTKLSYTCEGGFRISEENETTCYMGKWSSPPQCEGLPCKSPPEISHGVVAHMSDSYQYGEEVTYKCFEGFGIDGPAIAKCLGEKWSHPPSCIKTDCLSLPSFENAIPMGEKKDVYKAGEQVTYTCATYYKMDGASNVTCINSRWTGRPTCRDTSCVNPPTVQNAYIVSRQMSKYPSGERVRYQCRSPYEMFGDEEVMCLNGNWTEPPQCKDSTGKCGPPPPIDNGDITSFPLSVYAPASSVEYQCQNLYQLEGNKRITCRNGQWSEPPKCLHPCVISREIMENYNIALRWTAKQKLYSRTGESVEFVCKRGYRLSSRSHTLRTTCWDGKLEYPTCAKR"}, "[3]": {"target": "T2, recombinant human factor H, Y402 variant, produced in the PER.C6 cell line", "T2 chain": "T1 chain"}}, "data": [{"protein": "B1", "values": [{"measurement": "cofactor activity of Factor I (liquid-phase cleavage of the C3b α′ chain, SDS-PAGE)", "setting": "[1]", "value": "this activity is comparable to that of the human plasma FH"}, {"measurement": "cofactor activity of Factor I (liquid-phase cleavage of the C3b α′ chain, SDS-PAGE)", "setting": "[2]", "value": "the recombinant FHs produced by the PER.C6 and HEK 293F lines have a similar cofactor activity of FI and that this activity is comparable to that of the human plasma FH"}, {"measurement": "cofactor activity of Factor I (liquid-phase cleavage of the C3b α′ chain, SDS-PAGE)", "setting": "[3]", "value": "the recombinant FHs produced by the PER.C6 and HEK 293F lines have a similar cofactor activity of FI and that this activity is comparable to that of the human plasma FH"}]}]}
